Fold higher affinity than to IgG data for one substance are collected here from patent US20040253709A1.

For the test, the target named is human IgE (human) (UniProt P01854). The test is described as follows: Western blots of His tag IPSE incubated with human IgE (100-100,000 ng/ml), compared with IgG; called competitive inhibition experiments in paragraph 33.

Turning to recombinant His tag IPSE fusion protein, the fold higher affinity than to IgG was found to be 100 times.
